Patent US20250129170A1

Molecular target: human EPOR on cells (293T/EPOR cells; UT-7 cells) (human) (UniProt P19235)
Test: cell-based or functional assay

Chain of human EPOR on cells (293T/EPOR cells; UT-7 cells) (human) (P19235 25-508): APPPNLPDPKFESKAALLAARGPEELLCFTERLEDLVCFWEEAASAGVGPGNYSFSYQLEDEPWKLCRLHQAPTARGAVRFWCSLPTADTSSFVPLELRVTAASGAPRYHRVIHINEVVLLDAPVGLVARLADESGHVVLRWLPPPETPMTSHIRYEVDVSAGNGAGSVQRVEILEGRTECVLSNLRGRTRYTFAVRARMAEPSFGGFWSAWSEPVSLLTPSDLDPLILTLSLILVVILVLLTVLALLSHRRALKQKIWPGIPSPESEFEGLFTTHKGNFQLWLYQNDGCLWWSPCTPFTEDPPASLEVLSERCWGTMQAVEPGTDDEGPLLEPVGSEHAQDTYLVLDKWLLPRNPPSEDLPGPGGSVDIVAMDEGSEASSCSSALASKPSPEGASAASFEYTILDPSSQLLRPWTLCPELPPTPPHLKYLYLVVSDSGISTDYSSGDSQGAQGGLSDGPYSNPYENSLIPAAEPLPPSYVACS

EPO-mediated Stat5 Phosphorylation in 293T/EPOR, Elisa	Substance
5%	IME010 (EPO-Fc, N147K/R103A) (from UniProt P01588 28-193) (Fc fusion)
32%	IME039 (EPO-Fc, L80A) (from UniProt P01588 28-193) (Fc fusion)
0%	IME043 (EPO-HSA, R103A) (from UniProt P01588 28-193)
71%	IME037 (EPO-Fc, Q58A) (from UniProt P01588 28-193) (Fc fusion)
13%	IME009 (EPO-Fc, K45D/R103A) (from UniProt P01588 28-193) (Fc fusion)
94%	IME044 (EPO-HSA, Q65A/E72R) (from UniProt P01588 28-193)
5%	IME034 (EPO-Fc, R76A) (from UniProt P01588 28-193) (Fc fusion)
30%	IME008 (EPO-Fc, R103A) (from UniProt P01588 28-193) (Fc fusion)
15%	IME049 (EPO-HSA, K20A/K45A/K52A/K140A/K152A/K154A) (from UniProt P01588 28-193)
11%	IME048 (EPO-HSA, K140A/K152A/K154A) (from UniProt P01588 28-193)
86%	IME005 (EPO-Fc, K45D) (from UniProt P01588 28-193) (Fc fusion)
90%	IME046 (EPO-HSA, K20A/K45A/K52A) (from UniProt P01588 28-193)
5%	IME011 (EPO-Fc, R150E/R103A) (from UniProt P01588 28-193) (Fc fusion)
57%	IME038 (EPO-Fc, L69A) (from UniProt P01588 28-193) (Fc fusion)
0%	IME030 (HSA-HBP, helix B peptide fused to albumin)
37%	IME006 (EPO-Fc, N147K) (from UniProt P01588 28-193) (Fc fusion)
100%	IME013 (EPO-Fc, Q65A) (from UniProt P01588 28-193) (Fc fusion)
27%	IME015 (EPO-Fc, R76E) (from UniProt P01588 28-193) (Fc fusion)
2%	IME032 (EPO-Fc, E62A) (from UniProt P01588 28-193) (Fc fusion)
75%	IME033 (EPO-Fc, E72A) (from UniProt P01588 28-193) (Fc fusion)
0%	IME031 (HSA-HBSP, helix B surface peptide fused to albumin)
82%	IME014 (EPO-Fc, E72R) (from UniProt P01588 28-193) (Fc fusion)
4%	IME012 (EPO-Fc, E62R) (from UniProt P01588 28-193) (Fc fusion)
23%	IME047 (EPO-HSA, K140A/K152A) (from UniProt P01588 28-193)
27%	IME007 (EPO-Fc, R150E) (from UniProt P01588 28-193) (Fc fusion)
105%	IME045 (EPO-HSA, Q65A/E72R/N83A) (from UniProt P01588 28-193)
